The target in test [1] is Fl–hRyR1(1975–1999)p: hRyR1(1975–1999)p with a 5,6-carboxyfluorescein moiety at the N-terminus (human). In words: fluorescence polarisation.
The target of test [2] is Fl–hRyR1(3614–3643)p: hRyR1(3614–3643)p with a 5,6-carboxyfluorescein moiety at the N-terminus (human).
In test [3] the target is Fl–hRyR1(1975–1999)p: hRyR1(1975–1999)p with a 5,6-carboxyfluorescein moiety at the N-terminus (human).

Consider one substance from paper PMC4208696.

Broadly, the stoichiometry N is the number of molecules, sites or subunits per partner or assembly.

Chain of Fl–hRyR1(1975–1999)p: hRyR1(1975–1999)p with a 5,6-carboxyfluorescein moiety at the N-terminus (human) (P21817 1975-1999): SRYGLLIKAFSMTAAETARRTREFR
Chain of Fl–hRyR1(3614–3643)p: hRyR1(3614–3643)p with a 5,6-carboxyfluorescein moiety at the N-terminus (human) (P21817 3614-3643): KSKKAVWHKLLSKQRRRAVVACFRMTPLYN

As to “full-length mammalian calmodulin (CaM_(1–148)) (from UniProt P0DP23 1-149) (natural protein)”, in test [1], the saturation at ~100 μM CaM was greater than 85%. Besides, the stoichiometry N in test [2] and in test [3] was 1 each time.
